Laboratory results as given in article PMC2952866 (Nucleic Acids Research, 2010).

T1: Mcm4 (Saccharomyces cerevisiae, UniProt P30665 1-933)
T1 sequence: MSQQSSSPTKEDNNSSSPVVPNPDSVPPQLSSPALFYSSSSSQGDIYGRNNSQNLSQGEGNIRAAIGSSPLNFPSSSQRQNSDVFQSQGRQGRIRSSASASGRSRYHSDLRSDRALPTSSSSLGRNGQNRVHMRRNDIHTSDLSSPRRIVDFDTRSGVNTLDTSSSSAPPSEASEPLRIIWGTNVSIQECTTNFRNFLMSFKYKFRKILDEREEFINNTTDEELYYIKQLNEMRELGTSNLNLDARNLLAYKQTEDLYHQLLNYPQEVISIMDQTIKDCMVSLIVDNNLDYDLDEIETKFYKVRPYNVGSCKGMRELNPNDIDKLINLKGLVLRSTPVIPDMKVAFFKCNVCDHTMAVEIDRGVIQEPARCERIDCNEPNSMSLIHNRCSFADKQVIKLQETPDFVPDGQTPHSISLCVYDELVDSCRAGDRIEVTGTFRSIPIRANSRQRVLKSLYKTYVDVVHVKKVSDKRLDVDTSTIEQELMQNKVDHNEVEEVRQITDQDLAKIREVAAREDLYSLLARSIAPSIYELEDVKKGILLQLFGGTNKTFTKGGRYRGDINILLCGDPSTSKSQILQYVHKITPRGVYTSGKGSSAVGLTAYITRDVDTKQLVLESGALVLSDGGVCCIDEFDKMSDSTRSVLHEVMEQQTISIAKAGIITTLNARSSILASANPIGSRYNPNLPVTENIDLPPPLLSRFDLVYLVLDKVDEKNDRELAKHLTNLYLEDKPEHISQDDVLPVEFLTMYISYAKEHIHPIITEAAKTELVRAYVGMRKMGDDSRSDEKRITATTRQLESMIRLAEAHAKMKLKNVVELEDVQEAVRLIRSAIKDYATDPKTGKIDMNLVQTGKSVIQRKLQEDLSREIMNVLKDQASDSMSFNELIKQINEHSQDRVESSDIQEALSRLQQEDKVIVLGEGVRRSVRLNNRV

T2: Mcm7 (Saccharomyces cerevisiae, UniProt P38132 1-845)
T2 sequence: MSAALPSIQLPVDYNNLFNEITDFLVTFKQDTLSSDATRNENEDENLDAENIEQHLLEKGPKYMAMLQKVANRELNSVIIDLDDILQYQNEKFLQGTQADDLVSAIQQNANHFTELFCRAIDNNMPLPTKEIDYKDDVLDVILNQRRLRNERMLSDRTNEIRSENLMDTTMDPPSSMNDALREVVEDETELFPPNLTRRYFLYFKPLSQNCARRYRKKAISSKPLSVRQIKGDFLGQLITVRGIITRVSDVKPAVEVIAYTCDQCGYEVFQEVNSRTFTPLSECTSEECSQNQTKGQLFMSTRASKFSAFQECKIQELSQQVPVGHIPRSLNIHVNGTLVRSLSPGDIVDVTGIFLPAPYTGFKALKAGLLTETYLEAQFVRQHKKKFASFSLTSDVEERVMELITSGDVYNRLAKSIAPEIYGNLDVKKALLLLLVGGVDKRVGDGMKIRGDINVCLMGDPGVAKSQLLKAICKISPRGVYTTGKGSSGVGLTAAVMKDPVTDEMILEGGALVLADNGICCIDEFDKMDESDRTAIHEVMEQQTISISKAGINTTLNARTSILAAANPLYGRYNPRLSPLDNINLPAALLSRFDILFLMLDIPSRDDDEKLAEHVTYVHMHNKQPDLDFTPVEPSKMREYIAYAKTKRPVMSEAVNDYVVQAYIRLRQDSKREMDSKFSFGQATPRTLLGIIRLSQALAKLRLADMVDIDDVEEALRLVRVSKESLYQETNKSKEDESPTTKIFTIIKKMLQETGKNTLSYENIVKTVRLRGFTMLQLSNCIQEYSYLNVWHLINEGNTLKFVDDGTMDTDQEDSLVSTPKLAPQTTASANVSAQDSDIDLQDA

B1: Mcm2 (natural protein)
chain: MSDNRRRRREEDDSDSENELPPSSPQQHFRGGMNPVSSPIGSPDMINPEGDDNEVDDVPDIDEVEEQMNEVDLMDDNMYEDYAADHNRDRYDPDQVDDREQQELSLSERRRIDAQLNERDRLLRNVAYIDDEDEEQEGAAQLDEMGLPVQRRRRRRQYEDLENSDDDLLSDMDIDPLREELTLESLSNVKANSYSEWITQPNVSRTIARELKSFLLEYTDETGRSVYGARIRTLGEMNSESLEVNYRHLAESKAILALFLAKCPEEMLKIFDLVAMEATELHYPDYARIHSEIHVRISDFPTIYSLRELRESNLSSLVRVTGVVTRRTGVFPQLKYVKFNCLKCGSILGPFFQDSNEEIRISFCTNCKSKGPFRVNGEKTVYRNYQRVTLQEAPGTVPPGRLPRHREVILLADLVDVSKPGEEVEVTGIYKNNYDGNLNAKNGFPVFATIIEANSIKRREGNTANEGEEGLDVFSWTEEEEREFRKISRDRGIIDKIISSMAPSIYGHRDIKTAVACSLFGGVPKNVNGKHSIRGDINVLLLGDPGTAKSQILKYVEKTAHRAVFATGQGASAVGLTASVRKDPITKEWTLEGGALVLADKGVCLIDEFDKMNDQDRTSIHEAMEQQSISISKAGIVTTLQARCSIIAAANPNGGRYNSTLPLAQNVSLTEPILSRFDILCVVRDLVDEEADERLATFVVDSHVRSHPENDEDREGEELKNNGESAIEQGEDEINEQLNARQRRLQRQRKKEEEISPIPQELLMKYIHYARTKIYPKLHQMDMDKVSRVYADLRRESISTGSFPITVRHLESILRIAESFAKMRLSEFVSSYDLDRAIKVVVDSFVDAQKVSVRRQLRRSFAIYTLGH
B2: Mcm3 (natural protein)
chain: MEGSTGFDGDATTFFAPDAVFGDRVRRFQEFLDTFTSYRDSVRSIQVYNSNNAANYNDDQDDADERDLLGDDDGDDLEKEKKAASSTSLNILPHRIIISLDDLREFDRSFWSGILVEPAYFIPPAEKALTDLADSMDDVPHPNASAVSSRHPWKLSFKGSFGAHALSPRTLTAQHLNKLVSVEGIVTKTSLVRPKLIRSVHYAAKTGRFHYRDYTDATTTLTTRIPTPAIYPTEDTEGNKLTTEYGYSTFIDHQRITVQEMPEMAPAGQLPRSIDVILDDDLVDKTKPGDRVNVVGVFKSLGAGGMNQSNSNTLIGFKTLILGNTVYPLHARSTGVAARQMLTDFDIRNINKLSKKKDIFDILSQSLAPSIYGHDHIKKAILLMLMGGVEKNLENGSHLRGDINILMVGDPSTAKSQLLRFVLNTASLAIATTGRGSSGVGLTAAVTTDRETGERRLEAGAMVLADRGVVCIDEFDKMTDVDRVAIHEVMEQQTVTIAKAGIHTTLNARCSVIAAANPVFGQYDVNRDPHQNIALPDSLLSRFDLLFVVTDDINEIRDRSISEHVLRTHRYLPPGYLEGEPVRERLNLSLAVGEDADINPEEHSNSGAGVENEGEDDEDHVFEKFNPLLQAGAKLAKNKGNYNGTEIPKLVTIPFLRKYVQYAKERVIPQLTQEAINVIVKNYTDLRNDDNTKKSPITARTLETLIRLATAHAKVRLSKTVNKVDAKVAANLLRFALLGEDIGNDIDEEESEYEEALSKRSPQKSPKKRQRVRQPASNSGSPIKSTPRRSTASSVNATPSSARRILRFQDDEQNAGEDDNDIMSPLPADEEAELQRRLQLGLRVSPRRREHLHAPEEGSSGPLTEVGTPRLPNVSSAGQDDEQQQSVISFDNVEPGTISTGRLSLISGIIARLMQTEIFEEESYPVASLFERINEELPEEEKFSAQEYLAGLKIMSDRNNLMVADDKVWRV
B3: Mcm5 (natural protein)
chain: MSFDRPEIYSAPVLQGESPNDDDNTEIIKSFKNFILEFRLDSQFIYRDQLRNNILVKNYSLTVNMEHLIGYNEDIYKKLSDEPSDIIPLFETAITQVAKRISILSRAQSANNNDKDPENTSMDTDSLLLNSLPTFQLILNSNANQIPLRDLDSEHVSKIVRLSGIIISTSVLSSRATYLSIMCRNCRHTTSITINNFNSITGNTVSLPRSCLSTIESESSMANESNIGDESTKKNCGPDPYIIIHESSKFIDQQFLKLQEIPELVPVGEMPRNLTMTCDRYLTNKVIPGTRVTIVGIYSIYNSKNGAGSGRSGGGNGGSGVAIRTPYIKILGIQSDVETSSIWNSVTMFTEEEEEEFLQLSRNPKLYEILTNSIAPSIFGNEDIKKAIVCLLMGGSKKILPDGMRLRGDINVLLLGDPGTAKSQLLKFVEKVSPIAVYTSGKGSSAAGLTASVQRDPMTREFYLEGGAMVLADGGVVCIDEFDKMRDEDRVAIHEAMEQQTISIAKAGITTVLNSRTSVLAAANPIYGRYDDLKSPGDNIDFQTTILSRFDMIFIVKDDHNEERDISIANHVINIHTGNANAMQNQQEENGSEISIEKMKRYITYCRLKCAPRLSPQAAEKLSSNFVTIRKQLLINELESTERSSIPITIRQLEAIIRITESLAKLELSPIAQERHVDEAIRLFQASTMDAASQDPIGGLNQASGTSLSEIRRFEQELKRRLPIGWSTSYQTLRREFVDTHRFSQLALDKALYALEKHETIQLRHQGQNIYRSGV

Tests used:
Assay in all cases: SEC + co-IP
Mcm3 = target: B2
Mcm4 = target: T1, Mcm4
Mcm6 = Mcm6 (Saccharomyces cerevisiae, UniProt P53091 1-1017)
Sequence of Mcm6 (P53091 whole entry): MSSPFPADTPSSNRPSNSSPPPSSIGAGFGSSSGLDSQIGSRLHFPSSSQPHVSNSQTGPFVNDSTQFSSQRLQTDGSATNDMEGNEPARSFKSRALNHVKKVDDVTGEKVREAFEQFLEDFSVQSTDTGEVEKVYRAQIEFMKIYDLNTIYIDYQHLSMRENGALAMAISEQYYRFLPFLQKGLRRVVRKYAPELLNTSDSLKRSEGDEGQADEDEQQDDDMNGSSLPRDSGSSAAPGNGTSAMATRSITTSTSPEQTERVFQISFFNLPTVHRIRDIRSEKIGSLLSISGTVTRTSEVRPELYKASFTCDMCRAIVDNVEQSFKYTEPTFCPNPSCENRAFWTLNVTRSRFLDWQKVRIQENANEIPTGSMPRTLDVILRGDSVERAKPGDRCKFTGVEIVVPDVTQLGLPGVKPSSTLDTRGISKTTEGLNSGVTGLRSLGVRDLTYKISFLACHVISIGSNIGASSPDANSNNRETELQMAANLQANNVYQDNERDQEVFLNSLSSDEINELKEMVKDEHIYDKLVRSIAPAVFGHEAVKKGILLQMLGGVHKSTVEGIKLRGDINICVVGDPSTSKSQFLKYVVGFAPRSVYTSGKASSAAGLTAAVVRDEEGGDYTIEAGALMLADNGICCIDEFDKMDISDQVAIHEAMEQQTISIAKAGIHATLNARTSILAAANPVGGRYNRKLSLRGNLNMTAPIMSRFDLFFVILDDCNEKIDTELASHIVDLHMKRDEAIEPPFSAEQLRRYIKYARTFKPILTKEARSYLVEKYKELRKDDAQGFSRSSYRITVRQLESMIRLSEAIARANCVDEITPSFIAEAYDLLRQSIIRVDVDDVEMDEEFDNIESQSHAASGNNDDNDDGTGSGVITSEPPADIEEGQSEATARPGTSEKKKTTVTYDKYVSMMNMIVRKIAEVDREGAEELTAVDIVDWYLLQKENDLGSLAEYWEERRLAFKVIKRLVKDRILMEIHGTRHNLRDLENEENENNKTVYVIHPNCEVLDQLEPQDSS

Mcm7 = target: T2, Mcm7

Binder | binding result (Mcm3) | binding result (Mcm4) | binding result (Mcm6) | binding result (Mcm7)
B1 | binds | binds | – | –
B2 | – | – | binds | –
B3 | – | – | binds | binds
